Test results as given in PMC3330151.
Where two headings read alike, the source gives them in different places.

B1: dT52 (ssDNA)
DNA: TTTTTTTTTTTTTTTTTTTTTTTTTTTTTTTTTTTTTTTTTTTTTTTTTTTT

Assays:
Experiment in all cases: EMSA
RecQ helicase [1] = biological target: T1, RecQ helicase (Escherichia coli, UniProt P15043 1-609)
RecQ helicase [2] = biological target: T1, RecQ helicase; remark: listed apart in the source
RecQ helicase [3] = biological target: T1, RecQ helicase; remark: listed apart in the source

T1 sequence (P15043 whole entry): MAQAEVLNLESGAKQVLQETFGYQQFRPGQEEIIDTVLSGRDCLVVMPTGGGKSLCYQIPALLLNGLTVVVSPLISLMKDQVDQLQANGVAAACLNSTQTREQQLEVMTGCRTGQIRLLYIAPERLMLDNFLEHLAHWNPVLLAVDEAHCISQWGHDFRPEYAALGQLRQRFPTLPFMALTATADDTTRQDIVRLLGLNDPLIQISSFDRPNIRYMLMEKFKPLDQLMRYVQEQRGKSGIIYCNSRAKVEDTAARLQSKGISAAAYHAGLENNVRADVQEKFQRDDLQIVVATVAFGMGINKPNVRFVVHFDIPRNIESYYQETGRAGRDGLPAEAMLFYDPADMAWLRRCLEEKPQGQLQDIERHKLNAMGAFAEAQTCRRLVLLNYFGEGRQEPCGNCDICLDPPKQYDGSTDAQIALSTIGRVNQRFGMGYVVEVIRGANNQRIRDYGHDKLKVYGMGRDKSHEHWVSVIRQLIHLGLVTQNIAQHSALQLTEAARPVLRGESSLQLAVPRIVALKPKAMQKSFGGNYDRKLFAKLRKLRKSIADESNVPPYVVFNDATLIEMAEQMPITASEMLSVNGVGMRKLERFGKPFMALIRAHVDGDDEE

| Binder | Kd (RecQ helicase [1]) | Kd (RecQ helicase [2]) | binding result (RecQ helicase [3]) |
| --- | --- | --- | --- |
| B1 | 150 ± 20 nM | 170 ± 10 nM |  |
| TTTTTT (ssDNA) [dT6] |  |  | no binding |
| TTTTTTTTTTTTTTTTTTTTTTTTT (ssDNA) [dT25] | 400 ± 60 nM | 1000 ± 100 nM |  |
